In US20260167699A1 (Chugai, published 2026):
Changes are numbered by the printed parent chain.

T1: FcγRIIb extracellular domain, C-terminal His tag (human, UniProt P31994 43-217)
T1 construct: extracellular domain; also called 2b
T1 sequence: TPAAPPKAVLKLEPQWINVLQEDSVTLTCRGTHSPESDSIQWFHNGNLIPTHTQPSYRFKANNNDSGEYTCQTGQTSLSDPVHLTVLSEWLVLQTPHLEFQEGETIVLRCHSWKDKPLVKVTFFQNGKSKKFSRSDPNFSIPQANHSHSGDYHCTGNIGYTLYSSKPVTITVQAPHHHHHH

T2: FcγRIIa(R) extracellular domain, C-terminal His tag (human, UniProt P12318 34-217)
T2 construct: extracellular domain; Allotype R131; also called 2aR
T2 sequence: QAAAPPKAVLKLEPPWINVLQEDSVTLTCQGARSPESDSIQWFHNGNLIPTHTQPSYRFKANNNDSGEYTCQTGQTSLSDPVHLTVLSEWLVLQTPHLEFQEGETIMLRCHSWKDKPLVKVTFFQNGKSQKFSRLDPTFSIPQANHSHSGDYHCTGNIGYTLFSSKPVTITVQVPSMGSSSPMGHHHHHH

T3: FcγRIIa(H) extracellular domain, C-terminal His tag (human, UniProt P12318 34-217)
T3 construct: extracellular domain; Allotype H131; also called 2aH
T3 sequence: T2 sequence with R134H

B1: GpH7-A5/GpH7-B3 variant A330_18N/GpL16-k0 (antibody, human IgG1, kappa)
heavy 1: not shown
heavy 2: not shown
light: DIVMTQSPLSLPVTPGEPASISCQASESLVHSNRNTYLHWYLQKPGQSPQLLIYKVSNRFSGVPDRFSGSGSGTDFTLKISRVEAEDVGVYYCSQNTHVPPTFGQGTKVEIERTVAAPSVFIFPPSDEQLKSGTASVVCLLNNFYPREAKVQWKVDNALQSGNSQESVTEQDSKDSTYSLSSTLTLSKADYEKHKVYACEVTHQGLSSPVTKSFNRGEC
notes: He Ab: anti-glypican 3 IgG1 heterodimer, only the GpH7-B3 chain mutated; position in EU numbering; also called He Ab
B2: GpH7-A5/GpH7-B3 variant K326_04F/GpL16-k0 (antibody, human IgG1, kappa)
heavy 1: not shown
heavy 2: not shown
light: B1 light
notes: as for B1
B3: GpH7-A5/GpH7-B3 variant K326_03V/GpL16-k0 (antibody, human IgG1, kappa)
heavy 1: not shown
heavy 2: not shown
light: B1 light
notes: as for B1
B4: GpH7-A5/GpH7-B3 variant K326_06M/GpL16-k0 (antibody, human IgG1, kappa)
heavy 1: not shown
heavy 2: not shown
light: B1 light
notes: as for B1
B5: GpH7-A5/GpH7-B3 variant I332_06M/GpL16-k0 (antibody, human IgG1, kappa)
heavy 1: not shown
heavy 2: not shown
light: B1 light
notes: as for B1
B6: GpH7-A5/GpH7-B3 variant I332_10E/GpL16-k0 (antibody, human IgG1, kappa)
heavy 1: not shown
heavy 2: not shown
light: B1 light
notes: as for B1
B7: GpH7-A5/GpH7-B3 variant E333_18N/GpL16-k0 (antibody, human IgG1, kappa)
heavy 1: not shown
heavy 2: not shown
light: B1 light
notes: as for B1
B8: GpH7-A5/GpH7-B3 variant E333_12R/GpL16-k0 (antibody, human IgG1, kappa)
heavy 1: not shown
heavy 2: not shown
light: B1 light
notes: as for B1
B9: GpH7-A5/GpH7-B3 variant I332_19Q/GpL16-k0 (antibody, human IgG1, kappa)
heavy 1: not shown
heavy 2: not shown
light: B1 light
notes: as for B1
B10: GpH7-A5/GpH7-B3 variant A330_20W/GpL16-k0 (antibody, human IgG1, kappa)
heavy 1: not shown
heavy 2: not shown
light: B1 light
notes: as for B1
B11: GpH7-A5/GpH7-B3 variant I332_02A/GpL16-k0 (antibody, human IgG1, kappa)
heavy 1: not shown
heavy 2: not shown
light: B1 light
notes: as for B1
B12: GpH7-A5/GpH7-B3 variant K326_01G/GpL16-k0 (antibody, human IgG1, kappa)
heavy 1: not shown
heavy 2: not shown
light: B1 light
notes: as for B1
B13: GpH7-A5/GpH7-B3 variant K326_05P/GpL16-k0 (antibody, human IgG1, kappa)
heavy 1: not shown
heavy 2: not shown
light: B1 light
notes: as for B1
B14: GpH7-A5/GpH7-B3 variant I332_16H/GpL16-k0 (antibody, human IgG1, kappa)
heavy 1: not shown
heavy 2: not shown
light: B1 light
notes: as for B1
B15: GpH7-A5/GpH7-B3 variant K326_02A/GpL16-k0 (antibody, human IgG1, kappa)
heavy 1: not shown
heavy 2: not shown
light: B1 light
notes: as for B1
B16: GpH7-A5/GpH7-B3 variant I332_13S/GpL16-k0 (antibody, human IgG1, kappa)
heavy 1: not shown
heavy 2: not shown
light: B1 light
notes: as for B1
B17: GpH7-A5/GpH7-B3 variant I332_04F/GpL16-k0 (antibody, human IgG1, kappa)
heavy 1: not shown
heavy 2: not shown
light: B1 light
notes: as for B1
B18: GpH7-A5/GpH7-B3 variant I332_14T/GpL16-k0 (antibody, human IgG1, kappa)
heavy 1: not shown
heavy 2: not shown
light: B1 light
notes: as for B1
B19: GpH7-A5/GpH7-B3 variant I332_03V/GpL16-k0 (antibody, human IgG1, kappa)
heavy 1: not shown
heavy 2: not shown
light: B1 light
notes: as for B1
B20: GpH7-A5/GpH7-B3 variant A330_19Q/GpL16-k0 (antibody, human IgG1, kappa)
heavy 1: not shown
heavy 2: not shown
light: B1 light
notes: as for B1
B21: GpH7-A5/GpH7-B3 variant K326_07I/GpL16-k0 (antibody, human IgG1, kappa)
heavy 1: not shown
heavy 2: not shown
light: B1 light
notes: as for B1

The binders below were run against T1, FcγRIIb extracellular domain, … (assay: SPR (Biacore); binding relative to GpH7-A5/GpH7-B3/GpL16-k0 x100;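 note: antibodies captured on a chip surface, soluble FcγR flowed over in HBS-EP+ running buffer at 25 °C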).

Binder | He/Con 2b [%]
B1 | 71.9
B2 | 174
B3 | 196
B4 | 185
B5 | 116
B6 | 158
B7 | 98.2
B8 | 104
B9 | 104
B10 | 86
B11 | 114
B12 | 119
B13 | 141
B14 | 103
B15 | 156
B16 | 109
B17 | 115
B18 | 118
B19 | 89.5
B20 | 103
B21 | 223

These binders were tested against T2, FcγRIIa(R) extracellular domain, … in the same assay as above.

Binder | He/Con 2aR [%]
B1 | 91
B2 | 129
B3 | 135
B4 | 132
B5 | 108
B6 | 113
B7 | 118
B8 | 127
B9 | 95.1
B10 | 97.6
B11 | 96.9
B12 | 108
B13 | 118
B14 | 97.6
B15 | 125
B16 | 97.9
B17 | 104
B18 | 104
B19 | 87
B20 | 117
B21 | 141

The binders below were run against T3, FcγRIIa(H) extracellular domain, … in the same assay as above.

Binder | He/Con 2aH [%]
B1 | 88.3
B2 | 101
B3 | 101
B4 | 108
B5 | 114
B6 | 112
B7 | 110
B8 | 110
B9 | 112
B10 | 93.8
B11 | 115
B12 | 105
B13 | 103
B14 | 113
B15 | 110
B16 | 113
B17 | 108
B18 | 119
B19 | 108
B20 | 110
B21 | 104

What follows are binders tested against T4, FcγRIa extracellular domain, C-terminal His tag (human, UniProt P12314 16-292) in the same assay as above.
T4 construct: extracellular domain; also called 1a
T4 sequence (P12314 other isoform, or with tags, fused parts or gaps): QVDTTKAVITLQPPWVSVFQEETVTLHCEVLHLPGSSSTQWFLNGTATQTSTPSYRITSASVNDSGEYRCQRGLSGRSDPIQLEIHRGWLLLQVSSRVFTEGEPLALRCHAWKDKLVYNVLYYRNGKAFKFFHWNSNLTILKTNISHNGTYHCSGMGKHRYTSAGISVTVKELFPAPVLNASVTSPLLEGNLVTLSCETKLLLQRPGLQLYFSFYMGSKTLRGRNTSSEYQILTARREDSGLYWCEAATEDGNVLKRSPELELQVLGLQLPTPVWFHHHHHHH

Binder | He/Con 1a [%]
B1 | 110
B2 | 107
B3 | 107
B4 | 108
B5 | 105
B6 | 109
B7 | 91.4
B8 | 96.7
B9 | 103
B10 | 111
B11 | 100
B12 | 106
B13 | 106
B14 | 100
B15 | 107
B16 | 97.3
B17 | 106
B18 | 104
B19 | 100
B20 | 109
B21 | 106

What follows are binders tested against T5, FcγRIIIa extracellular domain, C-terminal His tag (human, UniProt P08637 17-208) in the same assay as above.
T5 construct: extracellular domain; also called 3a
T5 sequence (P08637 other isoform, or with tags, fused parts or gaps): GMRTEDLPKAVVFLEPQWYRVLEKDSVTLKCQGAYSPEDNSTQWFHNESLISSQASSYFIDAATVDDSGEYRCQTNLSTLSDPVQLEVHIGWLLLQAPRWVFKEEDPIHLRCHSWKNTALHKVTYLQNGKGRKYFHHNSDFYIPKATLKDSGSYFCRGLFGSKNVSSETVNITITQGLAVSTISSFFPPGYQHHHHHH

Binder | He/Con 3a [%]
B1 | 67.3
B2 | 114
B3 | 135
B4 | 127
B5 | 92.5
B6 | 213
B7 | 76.2
B8 | 92.2
B9 | 101
B10 | 102
B11 | 103
B12 | 114
B13 | 117
B14 | 89
B15 | 130
B16 | 95.6
B17 | 89.3
B18 | 110
B19 | 85.2
B20 | 86.3
B21 | 153
